In the RNAGym collection of RNA variant scans (doi:10.1093/molbev/msab373):

B1: Azoarcus group I ribozyme (parent)
chain: GUGCCUUGCGCCGGGAAACCACGCAAGGGAUGGUGUCAAAUUCGGCGAAACCUAAGCGCCCGCCCGGGCGUAUGGCAACGCCGAGCCAAGCUUCGGCGCCUGCGCCGAUGAAGGUGUAGAGACUAGACGGCACCCACCUAAGGCAAACGCUAUGGUGAAGGCAUAGUCCAGGGAGUGGCGAAAGUCACACAAACCGG

Variants of: B1
Assay: reverse-splicing fitness (ratio to wild type); higher = more active; in vitro selection; Mg2+ level not given
Summary of the method: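 An in vitro group I ribozyme library with randomized positions was T7-transcribed and gel-purified. In triplicate, 10 pmol RNA in EPPS pH 7.5 was reacted with 50 pmoles of a 30-nt RNA substrate for 1 h at 37 °C across several added MgCl2 levels (1–48 mM), then stopped with EDTA. Products were reverse transcribed from a substrate-complementary primer, PCR-amplified and sequenced (HiSeq 4000). Fitness is a variant's read proportion after selection over that before, normalised to wild type.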

Variant | reverse-splicing fitness
C82A A111G A120U C150A C169U U176G | 0.00235
C82A A111G A120U A145C C169A U176A | 0.00258
C82A A111G A120U A145C C169A U176C | 0.00231
C82A A111G A120U A145C C169A U176G | 0.00163
C82A A111G A120U C150G C169U | 0.00601
C82A A111G A120U C150G C169G | 0.00649
C82A A111G A120U C150G C169A | 0.00678
C82A A111G A120U A145G C150G C169A U176A | 0.0108
C82A A111G A120U A145G C150G C169A U176G | 0.00369
C82A A111G A120U A145G C150G C169A U176C | 0.00953
C82A A111G A120U A145G C150G C169U U176A | 0.00739
C82A A111G A120U A145G C150G C169U U176C | 0.00796
C82A A111G A120U A145G C150G C169U U176G | 0.00328
C82A A111G A120U A145U C150U C169G U176G | 0.00208
C82A A111G A120U A145U C150U C169G U176C | 0.00298
C82A A111G A120U A145U C150U C169G U176A | 0.00294
C82A A111G A120U A145C C150A U176C | 0.00355
C82A A111G A120U A145C C150A U176A | 0.003
C82A A111G A120U A145C C150A U176G | 0.00207
C82A A111G A145C C150G C169G U176C | 0.00679
C82A A111G A145C C150G C169G U176A | 0.0093

Variant | reverse-splicing fitness
C82A A111G A145C C150G C169G U176G | 0.00649
C82A A111G A120U C150G C169A U176A | 0.00738
C82A A111G A120U C150G C169A U176C | 0.00609
C82A A111G A120U C150G C169A U176G | 0.0031
C82A A111G A120U C150U U176G | 0.00388
C82A A111G A120U C150U U176A | 0.00851
C82A A111G A120U C150U U176C | 0.0108
C82A A111G A145C C169G | 0.00994
C82A A111G A145C C169U | 0.0119
C82A A111G A145C C169A | 0.0076
C82A A111G A120U A145G C150A C169G U176G | 0.00282
C82A A111G A120U A145G C150A C169G U176A | 0.015
C82A A111G A120U A145G C150A C169G U176C | 0.00705
C82A A111G A145C C150U C169G | 0.00745
C82A A111G A145C C150U C169A | 0.00814
C82A A111G A145C C150U C169U | 0.0104
C82A A111G A120U C150A U176C | 0.00802
C82A A111G A120U C150A U176G | 0.00282
C82A A111G A120U C150A U176A | 0.00595
C82A A111G A145C C150G U176A | 0.00908
C82A A111G A145C C150G U176C | 0.0181

Variant | reverse-splicing fitness
C82A A111G A145C C150G U176G | 0.00447
C82A A111G A120U C169U U176C | 0.00427
C82A A111G A120U C169U U176A | 0.00447
C82A A111G A120U C169U U176G | 0.00235
C82A A111G A120U A145U C169U U176C | 0.00256
C82A A111G A120U A145U C169U U176G | 0.00199
C82A A111G A120U A145U C169U U176A | 0.00277
C82A A111G A120U A145C C150U C169G U176G | 0.00192
C82A A111G A120U A145C C150U C169G U176C | 0.0025
C82A A111G A120U A145C C150U C169G U176A | 0.00301
C82A A111G A120U C150U C169A U176A | 0.00534
C82A A111G A120U C150U C169A U176G | 0.00235
C82A A111G A120U C150U C169A U176C | 0.00346
C82A A111G A120U A145G C150U U176C | 0.0133
C82A A111G A120U A145G C150U U176G | 0.00409
C82A A111G A120U A145G C150U U176A | 0.0096
C82A A111G A145C U176G | 0.0484
C82A A111G A145C U176A | 0.181
C82A A111G A145C U176C | 0.248
C82A A111G A120U A145C C150U C169A U176G | 0.00215
C82A A111G A120U A145C C150U C169A U176C | 0.00215

Variant | reverse-splicing fitness
C82A A111G A120U A145C C150U C169A U176A | 0.00228
C82A A111G A120U A145U U176A | 0.00893
C82A A111G A120U A145U U176G | 0.00433
C82A A111G A120U A145U U176C | 0.0146
C82A A111G A120U A145G C150U | 0.0257
C82A A111G A120U A145G C150G | 0.00855
C82A A111G A120U A145G C150A | 0.00991
C82A A111G A120U A145C C150U U176A | 0.00447
C82A A111G A120U A145C C150U U176C | 0.00422
C82A A111G A120U A145C C150U U176G | 0.00292
C82A A111G A145C C150U C169U U176C | 0.00981
C82A A111G A145C C150U C169U U176G | 0.0052
C82A A111G A145C C150U C169U U176A | 0.0126
C82A A111G A120U U176C | 0.0161
C82A A111G A120U U176A | 0.0096
C82A A111G A120U U176G | 0.00504
C82A A111G A120U A145C C150A C169U U176A | 0.00351
C82A A111G A120U A145C C150A C169U U176C | 0.00198
C82A A111G A120U A145C C150A C169U U176G | 0.00212
C82A A111G A120U A145U C150U | 0.0232
C82A A111G A120U A145U C150A | 0.00648
